Measurements reported in article PMC10250219.
Where two headings read alike, the source gives them in different places.

Columns and labels:
Assay in all cases: EMSA
OGG1-2NA (untagged) [1] = target: T1, OGG1-2NA (untagged) (human, UniProt O15527 1-345, N149A;N150A)
OGG1 WT (untagged) [2] = target: T2, OGG1 WT (untagged) (human, UniProt O15527 1-345)
OGG1-Y203A (untagged) = OGG1-Y203A (untagged) (human, UniProt O15527 1-345, Y203A)
OGG1-2NA (untagged) [3] = target: T1, OGG1-2NA (untagged); remark: listed apart in the source
OGG1 WT (untagged) [4] = target: T2, OGG1 WT (untagged); remark: listed apart in the source
GST-OGG1-G245A = GST-OGG1-G245A (human, UniProt O15527 1-345, G245A)
Sequence of GST-OGG1-G245A (O15527 whole entry G245A): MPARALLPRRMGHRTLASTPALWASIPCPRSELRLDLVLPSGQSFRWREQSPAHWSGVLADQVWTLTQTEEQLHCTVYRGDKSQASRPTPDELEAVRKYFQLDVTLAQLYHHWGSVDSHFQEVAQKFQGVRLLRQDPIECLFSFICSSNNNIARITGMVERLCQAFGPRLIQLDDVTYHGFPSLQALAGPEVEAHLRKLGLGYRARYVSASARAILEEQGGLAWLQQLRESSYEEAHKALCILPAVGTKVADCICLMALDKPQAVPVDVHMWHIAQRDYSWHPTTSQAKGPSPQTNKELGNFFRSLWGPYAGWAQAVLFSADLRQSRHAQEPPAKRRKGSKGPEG

T2 sequence (O15527 whole entry): as the sequence (O15527 whole entry G245A) above, with A245G counted along it
T1 sequence (O15527 whole entry N149A/N150A): as the sequence (O15527 whole entry G245A) above, with N149A, N150A, A245G counted along it
Sequence of OGG1-Y203A (untagged) (O15527 whole entry Y203A): as the sequence (O15527 whole entry G245A) above, with Y203A, A245G counted along it

B1: 24-mer G:C duplex (dsDNA)
DNA 1: CTGATCGATGACGCCTGACATGAT
DNA 2: ATCATGTCAGGCGTCATCGATCAG
For B1, the Kd (OGG1-2NA (untagged) [1]) was 602 ± 42 nM, the Kd (OGG1 WT (untagged) [2]) was 2220 ± 220 nM and the Kd (OGG1-Y203A (untagged)) was 1970 ± 270 nM.

B2: 24-mer 8-oxoG:C duplex (dsDNA)
DNA 1: CTGATCGATGACGCCTGACATGAT
DNA 2: ATCATGTCAGGCGTCATCGATCAG
modifications: 8-oxoG at position 13 of strand 1 (opposite C)
B2 was tested, and the Kd (OGG1-2NA (untagged) [3]) was 6.37 ± 0.58 nM and the Kd (OGG1 WT (untagged) [4]) was 0.42 ± 0.03 nM.

B3: Cy5 34-mer 8-oxoG:C duplex (dsDNA)
DNA 1: GGCTTCATCGTTGTCGCAGACCTGGTGGATACCG
DNA 2: CGGTATCCACCAGGTCTGCGACAACGATGAAGCC
modifications: 8-oxoG at position 16 of strand 1 (opposite C)
B3: no binding (GST-OGG1-G245A).

B4: Cy5 34-mer G:C duplex (dsDNA)
DNA 1: B3 DNA 1
DNA 2: B3 DNA 2
B4: no binding (GST-OGG1-G245A).
